Source: patent US20150125904A1, “PROBE INCORPORATION MEDIATED BY ENZYMES” (Massachusetts Institute of Technology, priority 2012, published 2015)

Key:
[1] = test system: O=C(O)CCCNC(=O)c1cc2cc(F)c(O)c(F)c2oc1=O; assay: purified protein, by the assay type; conditions: other: ligation to LAP, 2 μM ligase, 600 μM LAP; pH 7.2
[2] = biological target: biotinylated LAP-mCherry fusion protein; assay: gel shift on SDS-PAGE of HEK cell lysate incubated with 5 µM streptavidin, in-gel mCherry fluorescence

Row | percent of LAP-mCherry shifted up to ~80 kD [2] | Substance | Km [1] | kcat [1]
1 |  | E20G/W37TLplA (Escherichia coli K-12; E21G/W38T) | 17.5 ± 4.3 µM | 0.014 ± 0.001 s⁻¹
2 | 21% | streptavidin protein (from UniProt P22629 37-163) |  | 
